Each block holds one binder with its values, some of them ahead of it.
Legend:
[1] = biological target: T1, Human ALCAM (28–501)-6xhistidine tag (human, UniProt Q13740); experiment: SPR; BiaCore3000; CM5 chip coated with hALCAM at 800 RU; flow 10 µL/min; single-cycle, sequential injection of scFv at 30, 60, 120 and 240 nM; details: both partners purified
T1 construct: human ALCAM, residues 28-501, all five extracellular immunoglobulin domains; also called hALCAM; source: CHO cells, in-house, purified (Ni-NTA agarose)

[2] = biological target: T1, Human ALCAM (28–501)-6xhistidine tag; experiment: ELISA; CD6 competition ELISA: plate coated with hALCAM (5 µg/mL in PBS); fixed murine CD6-Fc (0.25 µg/mL) with antibody 2000 nM to 0.002 nM in PBS, 2 h RT; bound CD6-Fc detected with HRP-coupled antihuman IgG; details: both partners purified
Rat ALCAM = biological target: T2, Rat ALCAM (Rattus norvegicus, UniProt O35112); experiment: ELISA; plate coated with human, mouse, rat or monkey ALCAM (5 µg/mL in PBS); scFv V2D7 1:3 dilutions from 1000 nM to 0.051 nM in PBS, 2 h RT; detected with HRP-coupled protein A; details: both partners purified
T2 construct: rat ALCAM, recombinant; source: bought: Sino Biological (80221-R08H-50)
T2 sequence (O35112 28-527): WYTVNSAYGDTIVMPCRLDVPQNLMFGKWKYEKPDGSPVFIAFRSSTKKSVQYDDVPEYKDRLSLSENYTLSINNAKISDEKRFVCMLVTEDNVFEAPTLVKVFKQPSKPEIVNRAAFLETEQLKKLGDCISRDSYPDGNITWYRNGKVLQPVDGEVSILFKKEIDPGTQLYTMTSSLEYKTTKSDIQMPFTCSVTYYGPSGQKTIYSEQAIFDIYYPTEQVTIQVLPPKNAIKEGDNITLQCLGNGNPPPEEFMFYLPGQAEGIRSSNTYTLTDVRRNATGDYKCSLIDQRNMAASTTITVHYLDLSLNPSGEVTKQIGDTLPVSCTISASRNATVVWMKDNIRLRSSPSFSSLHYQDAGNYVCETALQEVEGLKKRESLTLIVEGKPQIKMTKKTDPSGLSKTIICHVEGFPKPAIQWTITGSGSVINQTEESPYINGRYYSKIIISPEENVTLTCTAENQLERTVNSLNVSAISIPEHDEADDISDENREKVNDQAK

Monkey ALCAM = biological target: T3, Monkey ALCAM (Macaca fascicularis (cynomolgus monkey), UniProt G7NZQ8); experiment: as above; details: both partners purified
T3 construct: cynomolgus monkey ALCAM, recombinant; also called cynomolgus monkey ALCAM; source: bought: R&D systems (10027-AL-100)

Murine ALCAM = Murine ALCAM (Mus musculus, UniProt Q61490); experiment: cell-based or functional assay
Chain of Murine ALCAM (Q61490 28-527): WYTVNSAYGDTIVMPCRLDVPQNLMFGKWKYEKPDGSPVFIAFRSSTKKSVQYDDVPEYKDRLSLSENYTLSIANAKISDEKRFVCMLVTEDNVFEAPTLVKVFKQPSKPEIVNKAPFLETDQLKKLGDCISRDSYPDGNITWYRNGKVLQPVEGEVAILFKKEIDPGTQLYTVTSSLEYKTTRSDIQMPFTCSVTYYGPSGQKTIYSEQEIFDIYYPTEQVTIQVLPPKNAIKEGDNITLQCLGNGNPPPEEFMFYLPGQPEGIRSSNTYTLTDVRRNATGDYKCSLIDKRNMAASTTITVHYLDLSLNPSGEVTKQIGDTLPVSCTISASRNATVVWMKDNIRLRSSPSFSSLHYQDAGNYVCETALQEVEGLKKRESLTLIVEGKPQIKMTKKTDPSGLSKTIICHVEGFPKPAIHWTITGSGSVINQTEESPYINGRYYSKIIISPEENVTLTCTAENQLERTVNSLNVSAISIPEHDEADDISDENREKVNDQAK

[3] = biological target: T1, Human ALCAM (28–501)-6xhistidine tag; experiment: ELISA; CD6 competition ELISA: plate coated with hALCAM (5 µg/mL in PBS); fixed murine CD6-Fc (0.25 µg/mL) with antibody 2000 nM to 0.002 nM in PBS, 2 h RT; bound CD6-Fc detected with HRP-coupled antihuman IgG; details: both partners purified; remark: listed apart in the source
[4] = biological target: T4, Human ALCAM (28–501)-6xhistidine tag (human, UniProt Q13740 28-501); experiment: as above; details: both partners purified
T4 construct: human ALCAM, residues 28-501, all five extracellular immunoglobulin domains; also called hALCAM; source: CHO cells, in-house, purified (Ni-NTA agarose)
T4 sequence (looked up): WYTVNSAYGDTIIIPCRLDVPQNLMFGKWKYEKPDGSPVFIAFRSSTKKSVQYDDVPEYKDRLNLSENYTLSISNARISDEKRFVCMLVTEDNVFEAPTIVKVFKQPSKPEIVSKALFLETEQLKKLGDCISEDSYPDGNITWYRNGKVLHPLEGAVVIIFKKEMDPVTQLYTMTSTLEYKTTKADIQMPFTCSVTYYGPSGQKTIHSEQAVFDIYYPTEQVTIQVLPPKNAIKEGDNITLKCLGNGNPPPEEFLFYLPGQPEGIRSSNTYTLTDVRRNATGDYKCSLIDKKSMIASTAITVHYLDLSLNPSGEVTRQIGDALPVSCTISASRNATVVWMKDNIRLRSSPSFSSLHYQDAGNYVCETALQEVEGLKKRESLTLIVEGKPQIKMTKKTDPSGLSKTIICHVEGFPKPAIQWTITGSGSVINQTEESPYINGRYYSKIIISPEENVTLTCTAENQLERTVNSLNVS

B1: scFv IF8 (scFv, V domains shown)
VH: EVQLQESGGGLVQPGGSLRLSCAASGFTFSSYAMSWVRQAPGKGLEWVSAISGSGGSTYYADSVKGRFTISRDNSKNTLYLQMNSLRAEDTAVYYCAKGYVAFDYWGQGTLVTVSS
VL: SSELTQDPAVSVALGQTVRITCQGDSLRSYYASWYQQKPGQAPVLVIYGKNNRPSGIPDRFSGSSSGNTASLTITGAQAEDEADYYCNSSPPFSAEVVFGGGTKLTVL
notes: VH of IF8 (heavy chain DP47, ETH-2 library); VL of IF8 (light chain DPL16, ETH-2 library); CDR1 QGDSLRSYYAS, CDR2 GKNNRPS, CDR3 NSSPPFSAEVV; Only CDRs and linker are printed; also called IF8 scFv; parental scFv IF8; source: CHO cells, transient gene expression, purified (Protein A)
Kd [1]: 24.1 nM
IC50 [2]: 63.6 nM

B3: db V20C10NC (other)
VH: EVQLVESGGGLVQPGGSLRLSCAASGFTFSTGAMSWVRQAPGKGLEWVSAISGTGGTTYYADSVKGRFTISRDNSKNTLYLQMNSLRAEDTAVYYCAKGYVAFDYWGQGTLVTVSS
VL: SSVLTQPPSVSVAPGQTARITCQGDSLRSGYASWYQQKPGQAPVLVVYPKMSRPSGIPERFSGSSSGNTATLTISRVEAGDEADYYCNSSPPFSAEVVFGGGTKLTVL
notes: linker; Bivalent two-chain diabody; also called V20C10NC in db format; source: CHO cells, transient gene expression, purified (Protein A)
binding result [2]: binds

B7: Murine CD6-Fc (Fc fusion, mouse, UniProt Q61003 17-398, looked up)
chain: GLPSPAPSGQHKNGTIPNMTLDLEERLGIRLVNGSSRCSGSVKVLLESWEPVCAAHWNRAATEAVCKALNCGDSGKVTYLMPPTSELPPGATSGNTSSAGNTTWARAPTERCRGANWQFCKVQDQECSSDRRLVWVTCAENQAVRLVDGSSRCAGRVEMLEHGEWGTVCDDTWDLQDAHVVCKQLKCGWAVKALAGLHFTPGQGPIHRDQVNCSGTEAYLWDCPGRPGDQYCGHKEDAGVVCSEHQSWRLTGGIDSCEGQVEVYFRGVWSTVCDSEWYPSEAKVLCRSLGCGSAVARPRGLPHSLDGRMYYSCKGQEPALSTCSWRFNNSNLCSQSRAARVVCSGSQRHLNLSTSEVPSRVPVTIESSVPVSVKDKDSQGLT
notes: mouse CD6, recombinant Fc fusion; source: bought: R&D Systems (727-CD)
binding result [4]: binds

Second part, led by results:

binding result (Rat ALCAM): binds
binding result (Monkey ALCAM): binds
IC50 [3]: 20.7 ± 11.8 nM
B2: scFv V2D7 (scFv, V domains shown)
VH: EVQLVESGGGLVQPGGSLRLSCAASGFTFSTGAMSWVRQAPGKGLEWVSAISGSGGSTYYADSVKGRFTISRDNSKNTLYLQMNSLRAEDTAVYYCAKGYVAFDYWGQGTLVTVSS
VL: SSVLTQPPSVSVAPGQTARITCQGDSLRSGYASWYQQKPGQAPVLVVYGKNNRPSGIPERFSGSSSGNTATLTISRVEAGDEADYYCNSSPPFSAEVVFGGGTKLTVL
notes: VH of V2D7: as the VH of OPT with changed CDR1; linker; VL of V2D7: as the VL of OPT with changed CDR1; CDR1 QGDSLRSGYAS, CDR2 GKNNRPS, CDR3 NSSPPFSAEVV; also called V2D7 scFv; source: CHO cells, transient gene expression, purified (Protein A)
IC50 of DC transmigration across LEC monolayers (DC TM; blocks ALCAM–ALCAM between DCs and LECs) (Murine ALCAM): > 100 nM

binding result [1]: binds
B4: scFv V200G1 (scFv, V domains shown)
VH: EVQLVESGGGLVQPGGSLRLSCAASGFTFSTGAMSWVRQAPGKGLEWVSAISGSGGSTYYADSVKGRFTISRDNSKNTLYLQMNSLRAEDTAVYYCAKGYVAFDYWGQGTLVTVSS
VL: SSVLTQPPSVSVAPGQTARITCQGDSLRSGYASWYQQKPGQAPVLVVYGKTGRPSGIPERFSGSSSGNTATLTISRVEAGDEADYYCNSSPPFSAEVVFGGGTKLTVL
notes: VH of V200G1: as the VH of V2D7, i.e. the VH of OPT with changed CDR1; linker; VL of V200G1: as the VL of OPT with changed CDR1 and CDR2; CDR1 QGDSLRSGYAS, CDR2 GKTGRPS, CDR3 NSSPPFSAEVV; source: CHO cells, transient gene expression, purified (Protein A)

fold improvement of Kd against scFv IF8 [1]: 2 fold
B5: scFv OPT (scFv, V domains shown)
VH: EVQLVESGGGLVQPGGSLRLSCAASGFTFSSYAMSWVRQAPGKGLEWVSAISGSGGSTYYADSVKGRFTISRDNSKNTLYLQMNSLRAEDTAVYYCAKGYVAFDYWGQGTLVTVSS
VL: SSVLTQPPSVSVAPGQTARITCQGDSLRSYYASWYQQKPGQAPVLVVYGKNNRPSGIPERFSGSSSGNTATLTISRVEAGDEADYYCNSSPPFSAEVVFGGGTKLTVL
notes: linker; CDR1 QGDSLRSYYAS, CDR2 GKNNRPS, CDR3 NSSPPFSAEVV; Only CDRs and linker are printed; also called framework-optimized scFv OPT; source: CHO cells, transient gene expression, purified (Protein A)

binding result [1]: binds
B6: scFv V20C10NC (scFv, V domains shown)
VH: EVQLVESGGGLVQPGGSLRLSCAASGFTFSTGAMSWVRQAPGKGLEWVSAISGTGGTTYYADSVKGRFTISRDNSKNTLYLQMNSLRAEDTAVYYCAKGYVAFDYWGQGTLVTVSS
VL: SSVLTQPPSVSVAPGQTARITCQGDSLRSGYASWYQQKPGQAPVLVVYPKMSRPSGIPERFSGSSSGNTATLTISRVEAGDEADYYCNSSPPFSAEVVFGGGTKLTVL
notes: VH of V20C10NC: as the VH of OPT with changed CDR1 and CDR2; linker; VL of V20C10NC: as the VL of OPT with changed CDR1 and CDR2; CDR1 QGDSLRSGYAS, CDR2 PKMSRPS, CDR3 NSSPPFSAEVV; Histidines in the CDR2 loops of clone V20C10 were mutated to threonine (VH) and serine (VL), giving V20C10NC; source: CHO cells, transient gene expression, purified (Protein A)

Reference: PMC10385607, “Optimization and Characterization of Novel ALCAM-Targeting Antibody Fragments for Transepithelial Delivery” (Pharmaceutics, 2023)
